# B1: CC25.4 Fab with the VSRRLP elbow variant (for crystallization) (Fab, V domains shown)
# VH: QVQLVQSGAEVKKPGASVKVSCKASGYTFTDYFLHWVRQAPGQGLEWMGWINPDSGGTNYAQRFQGRVTMTRDTSISTAYMEVSRLRSDDTAVYYCARDNERYQMQNYYHYYGMDVWGQGTTVTVVS
# VL: not shown
# B2: CC25.56 Fab with the […] elbow variant (for crystallization) (Fab, V domains shown)
# VH: EVQLVQSGAEVKKPGESLKISCKGSGYTFTRHWIGWVRQMPGKGLEWMGVIYPGDSDTRYSPSFQGQVTVSADKSISTAYLQWSSLKASDTAMYFCARGGIAVASGAFDIWGQGTMVTVFN
# VL: QSALTQPPSVSVAPGKTARITCGGNNIGSKSVHWYQQKAGQAPVVVIYYPSDRPSGIPERFSGSNSENTATLTISGVEAGDEADYYCQLWDTNSDHWVFGGGTKLTVL
# B3: CC25.43 Fab with the […] elbow mutation and a shortened kappa FG loop (for crystallization) (Fab, V domains shown)
# VH: EVQLVESGGGLVQPGGSLKLSCSASGFTLSDSAMHWVRQASGKGLEWVGRISSNVNNDATVYAASLKGRFTISRDESKNMAYLQMNSLKNEDTAVYYCTVVPVLEYYQYGMDVWGQGTTVTIFN
# VL: DIQLTQSPSTLSASVGDRVIITCRASQSISTWLAWYQQRPGQAPKLLIYKASILQSGVPPRFSGSGSGTDFTLTISRLQPDDFATYYCQQYDSDSQPLTFGGGTKLEIK
# Target: SARS-CoV-2 spike receptor-binding domain (RBD), wild type, residues 333-529 (SARS-CoV-2 Wuhan-Hu-1 (wild type), UniProt P0DTC2)
# Experiment: crystal structure
row,Binder,binding result
1,B1,binds
2,B2,binds
3,B3,binds

# Reference: publication PMC10168401 (bioRxiv, 2023)
